{
  "source": "patent US8987424B2",
  "about": "“CA6 antigen-specific cytotoxic conjugate and methods of using the same” (ImmunoGen, Inc., priority 2003, dated 2015)",
  "molecules": {"B1": {"name": "DS6-DM1: muDS6 antibody modified with SPP and conjugated to the maytansinoid DM1 (conjugate)", "VH": "QAYLQQSGAELVRSGASVKMSCKASGYTFTSYNMHWVKQTPGQGLEWIGYIYPGNGATNYNQKFKGKATLTADPSSSTAYMQISSLTSEDSAVYFCARGDSVPFAYWGQGTLVTVSA", "VL": "QIVLTQSPAIMSASPGEKVTITCSAHSSVSFMHWFQQKPGTSPKLWIYSTSSLASGVPARFGGSGSGTSYSLTISRMEAEDAATYYCQQRSSFPLTFGAGTKLELKR"}, "B2": {"name": "DS6: murine anti-CA6 monoclonal antibody DS6 (ATCC deposit number PTA-4449) (antibody, V domains shown)", "VH": "B1 VH", "VL": "B1 VL"}},
  "key": {"OVCAR5 tumor xenografts": {"test_system": "OVCAR5 tumor xenografts", "assay": "Subcutaneous OVCAR5 xenograft efficacy study", "assay_type": "in vivo, SCID mice", "experimental": "(§1) OVCAR5 (FIG. 26A and FIG. 26B), TOV-21 G (FIG. 26C and FIG. 26D), HPAC (FIG. 26E and FIG. 26F), and HeLa (FIG. 26G and FIG. 26H) cells were inoculated on day 0, and immunoconjugate treatments were given on day 6 and 13. PBS control animals were euthanized once tumor volumes exceeded 1000 mm^3. The conjugate was given at a dose of 600 μg/kg DM1, corresponding to an antibody concentration 27.7 mg/kg. Tumor volume (FIG. 26A, FIG. 26C, FIG. 26E, and FIG. 26G) and body weight (FIG. 26B, FIG. 26D, FIG. 26F, and FIG. 26H) of the mice were monitored during the course of the study.\n(§2) muDS6-DM 1 activity was further tested on a panel of subcutaneous xenograft models (see FIG. 26). […] OVCAR5 cells and TOV-21 G are ovarian tumor cell lines; HPAC is a pancreatic tumor cell line; HeLa is a cervical tumor cell line. OVCAR5 and TOV-21G cells have low surface CA6 expression; HeLa cells have an intermediate level of surface CA6 expression; HPAC cells have a high CA6 density of surface expression. TOV-21G and HPAC cells are maytansine sensitive; OVCAR5 and HeLa cells are 2-7-fold less maytansine sensitive.\nThe 4 cell-lines were grown in vitro, collected, and 1×10^7 cells in a 100 μL of serum free medium were injected under the right shoulder of each mouse (6 mice per model) and allowed to grow for 6 days to an average tumor volume of 57.6±6.7 and 90.2±13.4 mm^3 for the test and control groups respectively of OVCAR5, 147.1±29.6 and 176.2±18.9 mm^3 for the test and control groups respectively of HPAC, 194.3±37.2 and 201.7±71.7 mm^3 for the test and control groups respectively of HeLa, and 96.6±22.8 and 155.6±13.4 mm^3 for the test and control groups respectively of TOV-21G, at which time drug treatment was initiated. For each model three control mice were treated with two weekly doses of PBS and three test mice were treated with two weekly doses of conjugate (600 μg/kg DM1) intravenously. Toxic responses were monitored daily during the treatment and tumor volumes and body weights were monitored throughout the study. […] The HeLa model had about a 3 week lag period before beginning exponential growth. […] For the TOV-21 G, HPAC, and HeLa models the mice remain tumor-free at day 61. In the OVCAR5 model tumors recurred at about day 45 after tumor inoculation. Thus, muDS6-DM1 treatment in this model results in a tumor growth delay of approximately 34 days. The growth delay is significant as OVCAR5 cells are less maytansine-sensitive and have low CA6 epitope expression. In models where either the CA6 epitope density is higher or the model has greater maytansine sensitivity, the tumor regression is more robust. It is important to note that only 2 doses were administered. […] It is likely that cures could be achieved with additional or higher conjugate doses."}, "HPAC tumor xenografts": {"test_system": "HPAC tumor xenografts", "assay": "Subcutaneous HPAC xenograft efficacy study", "assay_type": "in vivo, SCID mice", "experimental": "as §1, §2\n(§3) The 4 cell-lines were grown in vitro, collected, and 1×10^7 cells in a 100 μL of serum free medium were injected under the right shoulder of each mouse (6 mice per model) and allowed to grow for 6 days to an average tumor volume of 57.6±6.7 and 90.2±13.4 mm^3 for the test and control groups respectively of OVCAR5, 147.1±29.6 and 176.2±18.9 mm^3 for the test and control groups respectively of HPAC, 194.3±37.2 and 201.7±71.7 mm^3 for the test and control groups respectively of HeLa, and 96.6±22.8 and 155.6±13.4 mm^3 for the test and control groups respectively of TOV-21G, at which time drug treatment was initiated. For each model three control mice were treated with two weekly doses of PBS and three test mice were treated with two weekly doses of conjugate (600 μg/kg DM1) intravenously. Toxic responses were monitored daily during the treatment and tumor volumes and body weights were monitored throughout the study. […]"}, "HeLa tumor xenografts": {"test_system": "HeLa tumor xenografts", "assay": "Subcutaneous HeLa xenograft efficacy study", "assay_type": "in vivo, SCID mice", "experimental": "as §1, §2, §3"}, "OVCAR5 IP tumors": {"test_system": "OVCAR5 IP tumors", "assay": "Intraperitoneal OVCAR5 tumor model", "assay_type": "in vivo, SCID mice", "conditions": "600 μg/kg DM1 weekly for 2 weeks", "experimental": "Tumor cells were injected intraperitoneally on day 0, and immunoconjugate treatments were given on day 6 and 13. Animals were euthanized once body weight loss exceeded 20%.\nHuman ovarian cancer is largely a disease of the peritoneum. OVCAR5 cells grow aggressively as an intraperitoneal (IP) model in SCID mice forming tumor nodules and producing ascites in a manner similar to human disease. […] OVCAR5 cells were grown in vitro, harvested and 1×10^7 cells in 100 μL of serum free medium were injected intraperitoneally. Tumors were allowed to grow for 6 days at which time treatment was initiated. Mice were treated weekly for 2 weeks with either PBS or DS6-DM1 conjugate at a dose of 600 μg/kg DM1 and monitored for weight loss resulting from peritoneal disease. By day 28, the PBS group of mice had lost greater than 20% body weight and were euthanized. The treated group was sacrificed at day 45 after exceeding 20% body weight loss."}, "Caov-3 cells": {"test_system": "Caov-3 cells", "assay": "Indirect cell viability assay with anti-mouse IgG (H+L) DM1 conjugate", "assay_type": "cell-based, human", "conditions": "without secondary conjugate"}, "HPAC cells": {"test_system": "HPAC cells", "assay": "Complement-dependent cytotoxicity (CDC) assay", "assay_type": "cell-based", "conditions": "5% human or rabbit serum", "experimental": "(§4) To further test the inherent activity of naked muDS6, a complement-dependent cytotoxicity (CDC) assay using muDS6 was conducted. HPAC and ZR-75-1 cells (25000 cells/well) were plated in 96 well plates, in the presence of 5% human or rabbit serum and various dilutions of muDS6, in 200 μl of RHBP media (RPMI-1640, 0.1% BSA, 20 mM HEPES (pH 7.2-7.4), 100 U/ml penicillin and 100 ug/ml streptomycin). The cells were incubated for 2 h at 37° C. Then Alamar Blue (10% of final concentration) reagent (Biosource) was added to the supernatant. The cells were incubated for 5-24 hrs before measuring fluorescence."}, "ZR-75-1 cells": {"test_system": "ZR-75-1 cells", "assay": "Complement-dependent cytotoxicity (CDC) assay", "assay_type": "cell-based", "conditions": "5% human or rabbit serum", "experimental": "as §4"}, "[1]": {"conditions": "600 μg/kg DM1, two weekly doses"}, "[2]": {"conditions": "600 μg/kg DM1 i.v., two weekly doses"}},
  "data": [
    {"molecule": "B1", "values": [
      {"measurement": "body weight", "setting": "OVCAR5 tumor xenografts; [1]", "result": "no weight loss was observed"},
      {"measurement": "day of tumor recurrence after tumor inoculation", "setting": "OVCAR5 tumor xenografts; [1]", "result": "~45", "unit": "days"},
      {"measurement": "tumor growth delay", "setting": "OVCAR5 tumor xenografts; [1]", "result": "approximately 34 days"},
      {"measurement": "tumor regression", "setting": "OVCAR5 tumor xenografts; [2]", "result": "complete tumor regression in all mice"},
      {"measurement": "body weight", "setting": "HPAC tumor xenografts; [1]", "result": "no weight loss was observed"},
      {"measurement": "tumor status at day 61", "setting": "HPAC tumor xenografts; [1]", "result": "tumor-free"},
      {"measurement": "tumor regression", "setting": "HPAC tumor xenografts; [2]", "result": "complete tumor regression in all mice"},
      {"measurement": "body weight", "setting": "HeLa tumor xenografts; [1]", "result": "no weight loss was observed"},
      {"measurement": "tumor status at day 61", "setting": "HeLa tumor xenografts; [1]", "result": "tumor-free"},
      {"measurement": "tumor regression", "setting": "HeLa tumor xenografts; [2]", "result": "complete tumor regression in all mice"},
      {"measurement": "tumor growth delay (in words)", "setting": "OVCAR5 IP tumors", "result": "able to delay tumor growth"},
      {"measurement": "visible signs of toxicity", "setting": "OVCAR5 IP tumors", "result": "no visible signs of toxicity"},
      {"measurement": "day of sacrifice after exceeding 20% body weight loss", "setting": "OVCAR5 IP tumors; PBS group day 28", "result": 45, "unit": "days"}
    ]},
    {"molecule": "B2", "values": [
      {"measurement": "activity of naked antibody in cell cultures", "setting": "Caov-3 cells", "result": "no proliferative or growth inhibitive activity"},
      {"measurement": "CDC mediated effect", "setting": "HPAC cells; listed as Murine DS6", "result": "no effect"},
      {"measurement": "CDC mediated effect", "setting": "HPAC cells; listed as muDS6", "result": "no CDC mediated effect"},
      {"measurement": "CDC mediated effect", "setting": "ZR-75-1 cells; listed as Murine DS6", "result": "no effect"},
      {"measurement": "CDC mediated effect", "setting": "ZR-75-1 cells; listed as muDS6", "result": "no CDC mediated effect"}
    ]}
  ]
}
